# Experimental data reported in the DeepSol protein solubility set.
# Assay: soluble on expression in E. coli; label from the status in PepcDB or PDB records
row,Sequence,soluble on expression in E. coli
1,PVYVDFDVPADLEDDALEALEVARDTGAVKKGTNETTKSIERGSAELVFVAEDVQPEEIVMHIPELADEKGVPFIFVEQQDDLGHAAGLEVGSAAAAVTDAGAAATVLEEIADKVEELR,soluble
2,QEGDAAKGEKEFNKCKACHMVQAPDGTDIVKGGKTGPNLYGVVGRKIASVEGFKYGDGILEVAEKNPDMVWSEADLIEYVTDPKPWLVEKTGDSAAKTKKTFKLGKNQADVVAFLAQHSPDAGAEAAPAEGAAN,soluble
3,QFLFSMSTGPFICTVKDNQVFVANLPWTMLEGDDIQVGKEFAARVEDCTNVKHDMAPTCTKPPPFCGPQDMKMFNFVGCSVLGNKLFIDQKYVRDLTAKDHAEVQTFREKIAAFEEQQENQPPSSGMPHGAVPAGGLSPPPPPSFCTVQ,soluble
4,QGDIGIDNLRNFYTKKDFVDLKDVKDNDTPIANQLQFSNESYDLISESKDFNKFSNFKGKKLDVFGISYNGQSNTKYIYGGVTATNEYLDKSRNIPINIWINGNHKTISTNKVSTNKKFVTAQEIDVKLRKYLQEEYNIYGHNGTKKGEEYGHKSKFYSGFNIGKVTFHLNNNDTFSYDLFYTGDDGLPKSFLKIYEDNKTVESEKFHLDVDISYKA,soluble
5,QGFSQEKYAHNALNRRGFIELKSQARGQISTGGQVLAESYQDEEGFYQRRYVTNPAIYGPIEGYLSDIYGASGMESNLNGVLSGTDSSVSVRRWTDELLGRKHSGANVELTLLPQVQEVAYNQMANAGYEGAVVAIKPSTGEILAMASTPSYDPSAIVNPDTAEQTWAALNADPGNPLLNHATQETLPPGSTFK,not soluble
6,QGKTTVTAALARLHARQGRRVRVFKCGPDFLDPMILARASGAPVYQLDLWMVGEAEARRLLARAAGEADLILIEGVMGLFDGNPSAADLARRFGVPVLGVINGAAMAQTFGALAYGLAHFQPDLPFSGVLGNRVGSQRHSDILRDCLPPGMRWFGGLPRSAEFELPSRHLGLVQAEELADLDARLDAAADALRASAETDLPEPVTFEVPAPAPLQRSLEGVRIGVARDASFAFLYQANLDLLRELGAELAFFSPLQDQALPAVDSLYLPGGYPELHLGRLQGNRAMAEAIRAHHAAGKPLLAECGGMLYLLDCLEDADGERGELLGLLPGRARLQKRLTALALQEVELPEGRLRGHTFHHSTLDCAVEPLARGVCPNGRNTAEAVFRLGRLTASYIHFYLPSNPQAAAALLAPARDA,not soluble
7,QGVRTFVDPFTFEDPNQAVREFAKEIDASCIKIEKVIGVGEFGEVCSGRLKVPGKREICVAIKTLKAGYTDKQRRDFLSEASIMGQFDHPNIIHLEGVVTKCKPVMIITEYMENGSLDAFLRKNDGRFTVIQLVGMLRGIGSGMKYLSDMSAVHRDLAARNILVNSNLVCKVSDFGMSRVLEDDPEAAYTTRGGKIPIRWTAPEAIAYRKFTSASDVWSYGIVMWEVMSYGERPYWDMSNQDVIKAIEEGYRLPPPMDCPIALHQLMLDCWQKERSDRPKFGQIVNMLDKLIRNPNSLKRTGSESS,soluble
8,QKFIARNRAPRVQIEYDVEIYGAERKIQLPFVMGVLADLAGKSNTPQPEVGERKFLDVDIDNFDERMKSVAPRAAFQVANTLTGAGHLNVDITFESIDDFSPATVARKVGALNEMLEARTQLANLLTYMDGKTGAEELIGQVLQNPALLGALAAAPKPA,not soluble
9,QKSNRKDYSLTMQSSVTVQEGMCVHVRCSFSYPVDSDTDSDPVHGYWFRAGNDISWKAPVATNNPAWAVQEETRDRFHLLGDPQTKNCTLSIRDARMSDAGRYFFRMEKGNIKWNYKYDQLSVNVTALTHRP,soluble
10,QLFSNNLLQENAHKYVREVIGSIPNTQVIRDQLLEENNRKHIEVVLIGATVSPAQIDSAKTKLSSYGLSGVELNIKQGFGYEQEETDVNELKSVLLKDLYDNGEKIIRNQQRQIDSLRNVLNFYNRFSSMESEIAQELQ,not soluble
11,QLIAATGCPTGIAHTYMAQEALEQAAKRKGITIKVETHGQIGIENELTPAEIQGAEAVIIAADKDVQAERFAGKRIIDVPVSVGIKEADRLIEEALAGKGSIA,not soluble
12,QPALPEAMYQLLSGAHYRTSPLDLRRMMDAPGQAFRCARTGGAVAGALWLVAEGGLSPELSRAVWAGFRRPRGNLVAQSLAAHGGSPLAATLRGLRVSRIAVHPTRQREGLGRKMIADIAADAAGYDYLSVSFGYTAELWRFWQRCG,not soluble
13,QRSHVASCSHSLSVIQFNLFYENSDINQFINYLLRHPADLVVMQELTPRVGSLLHMLDDVYPHYHGGQRDVGYPSNLMILSRHPITEVSVYRAPNGQEVIRAVWLPKGQAPITLFAAHPPSPRTSELWHQRNALVRTIETLTALYPEPEVLVVGDFNLSSVSPRFSTLFPSFQTAPVTSWPTNIKGINVPEPMMIGIDHLWLKSEQGQRIICSRESSALPQGSDHRMVTTQIGVHIP,not soluble
14,QSAYSRIEAESYSNQSGIQTETCSEGGEDVGFVENGDYTVYNNVDFGDGVGGFQARVASATSGGNIEIRLDSSTGTLIGTCPVAGTGDWQTYTDAKCTVSGVTGKHDVYLVFKGDSGYLFNLNWFTFSE,soluble
15,QSKTATVFLHGYNGGAYSTNYLIRKAEKAGAAQKALVVHVYKNGVMAFKGYWQKSIKNPMVQVVFQDNHASQKAQIYWLHQVLVQLKAKYGVKAYNAVGHSLGANDIVNQALKYGHDKRLPTLNKIVTIGGPFDGLTGFLSTQTEATVRRLDVKPSRFTKHFSEMLKYRHNFPDNVKLLNVYGDTNTGYNNDGFVGVASARSIRYLLRGKLTQYQEAFYSGEQAAHCALNQNPSVAHKMIAFLW,not soluble
16,QSPAEIASFSPRPSLADSKAVLNQAVADLSVAHSILHQVHWYMRGRGFMIWHPKMDEYMEEIDGYLDEMSERLITLGGAPFSTLKEFSENSQLKEVLGDYNVTIEEQLARVVEVFRYLAALFQKGFDVSDEEGDSVTNDIFNVAKASIEKHIWMLQAELGQAPKL,soluble
17,QTLLNVTLESESMAVDEVVVSARRLNRNDLGISDKEMVSATQKVDMEKLIAAAPVVSIEEALQGQLGGVDIVLGGDPGSRSAIRIRGTSTLNASSDPLIVIDGVPYPTEISDDFNFSTATEEDLGALLNISPNDIASVEVLKDASATAIWGTQGANGVLVIKTKQGT,not soluble
18,QVRLVESGGGVVQPGGSLRLSCEGSGFKFGDHGIHWVRQAPGEGLQWLTVISSDGTDERYTDSVKGRFTISRDNSKNTMSLQMNNLRPEDMGLYYCARDGKCGGGRCYSGLLDYWGQGTMVTVSSASFKGPSVFPLAPSSKSTSGGTAALGCLVKDYFPEPVTVSWNSGALTSGVHTFPAVLQSSGLYSLSSVVTVPSSSLGTQTYICNVNHKPSNTKVDKKVEPKSCDKTHTGLEHHHHHH,soluble
19,QYVKPELPDVATLKDVELQTPMQVFSQDGKLIAQFGEKRRIPVTYDEIPQDLIHALIATEDSRFYEHPGIDPIGITRAAVVVALSGSAKQGASTITQQLARNFFLSNEKKLMRKIKEIFIAIHIEQLLSKQEIMELYVNKIFLGYRSYGFGAAAQVYFGKSLNELSLSEIATLAGMPKAPSTMNPIYSLERATKRRNVVLMRMLDEKYITQEQFDEARNEPIIARYHSAEIEVSAPYVAELARAWAVKEYGEEKAYTSGLNIYMTVDSKLQDAANKAAVNNLMAYDERHGYRGAEKVLWKEGEAAWDAEQIEKHLKGQPTYGDLYPAVVTKVEGKTAQVVVKNNDAQTIPWTGINWARKFLTDNRQGSTPKSAQEVLAAGEQIWVRELTTTDEDGNTQSSWKLSQVPSANT,not soluble
20,RFTPRWIVRFLVENSLGRLWAEMHPDSRLKDSLSYLVPIENSQAHPLKLVRDITFLDPSCGSMHFGLVAFDLFAEMYREEFEKAGQPGWPENPSVNAEDEIASSIIAHNLHGIDIDLRSVQISALTLLLRARTLSPKCAFTDRNLACANVEQTSGGKLETLIAAAKFSHPIYERVLRTLAAEMKDSDQLGSLLRLERSLERLVIEERRKAEENKQFLLSFPGISPEQFDTQAGIEEFFDLLSDQLLRHLDFFVRASREMGGDPGHIVNEAAKGLRYMQLVSHHYDVVATNPPYMSRRNMSDVIAKHLDKHYPETKGDLYAAFIARCLELVAPQGKVAMVTQQSFMFIGTYEKFRSNLLSRVTVETMAHLGPKAFPNITGEKVNTTAFVIRREPDG,not soluble
21,RGDSLNYRLLRPEVEKTGLQYPLVLFLHGAGERGSDNEKQLTHGGQMFLNPVNREKYPAFVLVPQCPEKDYWAYTSRPSSFIPSEMPVGQEITPVLRAVKELLDTYLDLPQVDRNRIYVVGLSMGGMATYDLAVRFPDTFAAAVPICGTVNPVRLADAANVRFRIFHGDADNVVPVEGSREAYKALKNLGAEVEYIEFPGCNHGSWNPAFNYPGFMEWLFAQRK,not soluble
22,RGVLEGTVRIGALPLSRTRLLPSAIAAFLAQHPGITLMTNESPYESLVADMRAGNIDFIIGALRQDEDLPDLCSEALFEEDMLILLRNNHPLLRHPDPRSQLATAQWVLPRANAPARNLLDKAFVTLGLPLPQPTVETGDAAMVR,not soluble
23,RIIEINPEEGWVRVEAGVIKDQLNQFLKPYGYFFAPELSTSNRATLGGMINTDASGQGSLVYGKTSDHVLGLRAVLMGGDILDTQAVPVALAETLGNTPSTVGRIYNTVYQRCKAQRDLIIDKFPKLNRFLTGYDLRHVFNDEMSEFDLTRILTGSEGTLAFITEARLDITRLP,not soluble
24,RIRKIIAGYQTELEASQEQEKKARQEKDELMRNMAHDLRTPLTGVMTYVDVMKLENEAYAENMKNLNFISEKVLDIRTQVDNLLDFSIAGSQRPVELDASMDVEYIFGDYLSDVCAQLMKSNYEVDAEGISFKQVKVAVNMAFLTRIFSNLTDNIYKYADNKKPVVMKTAFTKKTFSVEIGNGVCDNKTLLKSAGIGLKSVDAMMQRMNGSMSFKREHGKFWVKLEFPIV,not soluble
25,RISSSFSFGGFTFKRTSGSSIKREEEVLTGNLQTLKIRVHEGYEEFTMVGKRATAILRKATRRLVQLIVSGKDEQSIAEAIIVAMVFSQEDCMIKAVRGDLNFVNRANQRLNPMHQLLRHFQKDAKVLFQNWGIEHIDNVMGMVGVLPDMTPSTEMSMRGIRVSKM,soluble
26,RMSEQSICQARAAVMVYDDANKKWVPAGGSTGFSRVHIYHHTGNNTFRVVGRKIQDHQVVINCAIPKGLKYNQATQTFHQWRDARQVYGLNFGSKEDANVFASAMMHALEVLNS,soluble
27,RPAVFPRMGVLPARVALLGQGQHWGVDFCLNVFRANFAEDREIQSEDVVRDLLRAQDLDADALIAQARQESTKEALRKQVDRARALGIFGAPTFMVDGEMFWGNDRLED,not soluble
28,RSFTAFLLFLPVGFLYPLAKKKELALQRQEELRRQFKEAVLILSSSLGAGYSVENAFAGSLRELEELYGREGMITKEFSYIAHQLRMNRTVETLLAEFADRSGLEEIKNFSDIFAVSKRSRGELVSVVNHTVHVISDRLQVREEILTMTAEKQFEQKIMNLVPYCIVIYIEFSSPGFFRQMYG,not soluble
29,RSLVSVHNEWDPLEEVIVGTAVGARVPTADRSVFAVEYAGDYESQEQIPSGAYPDRVLKETEEELHVLAAELTKLGVTVRRPGPRDHSALIKTPDWETDGFHDYCPRDGLLSVGQTIIETPMALRSRFLESLAYKDLLLEYFASGSRWLSAPKPRLTDDSYAPQAPAGERLTDEEPVFDAANVLRFGTDLLYLVSDSGNELGAKWLQSAVGDTYTVHPCRKLYASTHVDSTIVPLRPGLVLTNPSRVNDENMPDFLRSWENITCPELVDIGFTGDKPHCSVWIGMNLLVVRPDLAVVDRRQTALIRLLEKHGMNVLPLQLTHSRTLGGGFHCATLDVRRTGALETYQF,soluble
